Drawing on US7687457B2, “Cyclic molecular framework and derivatives thereof” (The University of Queensland, priority 1999, dated 2010), this text covers EC50 for 1 substance.

This assay concerns the target N-type voltage-sensitive calcium channels (receptors in rat brain membrane) (rat) (UniProt Q02294).
Chain of UniProt Q02294 (Q02294 whole entry): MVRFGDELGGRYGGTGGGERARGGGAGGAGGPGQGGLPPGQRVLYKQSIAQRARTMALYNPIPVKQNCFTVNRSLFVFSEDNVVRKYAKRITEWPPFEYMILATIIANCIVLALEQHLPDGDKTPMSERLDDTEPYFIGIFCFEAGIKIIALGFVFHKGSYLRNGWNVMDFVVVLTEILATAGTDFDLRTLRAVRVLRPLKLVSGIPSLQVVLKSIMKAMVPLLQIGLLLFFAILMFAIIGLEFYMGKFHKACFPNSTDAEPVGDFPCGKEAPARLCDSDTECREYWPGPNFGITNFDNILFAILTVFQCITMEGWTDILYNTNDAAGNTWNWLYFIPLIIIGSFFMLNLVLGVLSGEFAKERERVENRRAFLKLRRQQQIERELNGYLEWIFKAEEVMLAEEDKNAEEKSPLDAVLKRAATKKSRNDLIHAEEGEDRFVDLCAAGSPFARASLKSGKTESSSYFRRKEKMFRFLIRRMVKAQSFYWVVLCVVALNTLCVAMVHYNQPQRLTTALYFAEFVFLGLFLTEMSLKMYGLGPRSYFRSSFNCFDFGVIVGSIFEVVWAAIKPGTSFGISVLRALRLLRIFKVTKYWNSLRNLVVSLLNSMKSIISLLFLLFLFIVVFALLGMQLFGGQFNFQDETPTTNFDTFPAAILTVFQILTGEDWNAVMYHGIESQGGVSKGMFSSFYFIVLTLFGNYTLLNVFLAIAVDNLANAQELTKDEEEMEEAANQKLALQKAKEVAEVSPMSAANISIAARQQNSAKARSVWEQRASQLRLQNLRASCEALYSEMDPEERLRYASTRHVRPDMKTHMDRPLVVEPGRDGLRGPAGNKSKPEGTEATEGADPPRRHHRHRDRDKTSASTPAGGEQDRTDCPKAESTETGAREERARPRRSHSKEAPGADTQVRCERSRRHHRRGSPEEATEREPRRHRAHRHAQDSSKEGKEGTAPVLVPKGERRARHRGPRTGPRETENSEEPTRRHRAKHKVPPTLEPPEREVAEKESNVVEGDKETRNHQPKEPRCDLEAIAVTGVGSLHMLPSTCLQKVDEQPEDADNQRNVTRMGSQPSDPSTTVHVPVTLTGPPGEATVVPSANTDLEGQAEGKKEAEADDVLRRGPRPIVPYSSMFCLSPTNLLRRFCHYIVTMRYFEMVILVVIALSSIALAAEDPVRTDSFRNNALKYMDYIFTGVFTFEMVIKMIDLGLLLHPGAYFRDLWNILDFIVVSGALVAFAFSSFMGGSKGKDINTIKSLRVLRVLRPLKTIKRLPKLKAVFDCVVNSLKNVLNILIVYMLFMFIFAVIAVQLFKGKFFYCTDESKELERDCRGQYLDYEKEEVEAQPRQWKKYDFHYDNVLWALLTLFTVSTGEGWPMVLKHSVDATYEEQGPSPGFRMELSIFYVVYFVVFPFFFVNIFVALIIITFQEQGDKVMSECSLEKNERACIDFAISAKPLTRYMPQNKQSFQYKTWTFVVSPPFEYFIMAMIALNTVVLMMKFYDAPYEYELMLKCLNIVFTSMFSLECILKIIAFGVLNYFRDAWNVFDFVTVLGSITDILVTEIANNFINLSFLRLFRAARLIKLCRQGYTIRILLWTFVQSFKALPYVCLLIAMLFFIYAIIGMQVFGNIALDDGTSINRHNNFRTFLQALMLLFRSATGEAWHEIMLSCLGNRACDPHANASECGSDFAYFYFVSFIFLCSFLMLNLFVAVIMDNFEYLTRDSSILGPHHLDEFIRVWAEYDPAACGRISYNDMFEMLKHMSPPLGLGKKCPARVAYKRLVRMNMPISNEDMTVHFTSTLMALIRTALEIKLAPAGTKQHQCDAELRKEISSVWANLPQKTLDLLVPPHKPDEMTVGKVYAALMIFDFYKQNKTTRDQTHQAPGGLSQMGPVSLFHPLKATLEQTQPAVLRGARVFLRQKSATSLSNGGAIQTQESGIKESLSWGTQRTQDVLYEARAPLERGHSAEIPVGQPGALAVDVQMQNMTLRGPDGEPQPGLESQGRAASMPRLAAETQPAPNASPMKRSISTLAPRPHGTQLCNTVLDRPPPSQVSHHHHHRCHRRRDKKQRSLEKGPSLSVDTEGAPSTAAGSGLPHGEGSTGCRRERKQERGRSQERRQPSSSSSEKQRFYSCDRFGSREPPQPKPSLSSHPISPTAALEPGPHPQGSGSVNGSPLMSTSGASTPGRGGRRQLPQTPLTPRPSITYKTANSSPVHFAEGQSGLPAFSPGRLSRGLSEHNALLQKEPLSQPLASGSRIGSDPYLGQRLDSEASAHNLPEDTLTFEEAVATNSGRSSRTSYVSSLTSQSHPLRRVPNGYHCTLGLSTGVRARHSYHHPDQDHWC

With “ω-conotoxin MVIIA (from UniProt P05484 46-70) (peptide)”, the EC50 (in general, the concentration needed to bring the measured effect to its halfway point) turned out to be 0.044 nM.
